Our source for the Ki values is patent publication US20150210998A1.

No end group written: not given here.

For this experiment, the target named is His6-E6AP ligase (full-length, baculovirus-expressed) (human) (UniProt Q05086). The experiment in a line: inhibition of His6-E6AP-catalyzed 125I-polyubiquitin chain formation, semi-reciprocal plot; non-competitive versus UbcH7.

Ac-NRIRMYSERRITVLYSL [N-acetyl-… peptide] returned an inhibition constant (Ki) of 22 µM.
